Residue numbers refer to the chain shown, from its start. Blank lines part the entries; values can stand above or below the binder they belong to.
Columns and labels:
[1] = target: T1, human P-cadherin on the surface of cells (human, UniProt P22223 108-829); test: epitope competition on A431 cells; competitor: biotinylated 129-1c4 IgG at 1x KD, DELFIA
T1 construct: whole, on cells; also called native P-cadherin on the surface of A431 cells; SW480 cells stably expressing P-cadherin

[2] = target: T1, human P-cadherin on the surface of cells; test: cell-based or functional assay
[3] = target: T1, human P-cadherin on the surface of cells; test: cell-based or functional assay; remark: listed apart in the source
[4] = target: T1, human P-cadherin on the surface of cells; test: cell-based or functional assay; remark: listed apart in the source
[5] = target: T2, Recombinant human P-cadherin Fc (R&D Systems 861-PC-100) (human, UniProt P22223 108-654); test: ELISA on coated antigen, relative KD
T2 construct: also called recombinant human P-cadherin/Fc fusion protein; hCad/Fc; not shown: Fc part of the bought fusion protein

[6] = target: T1, human P-cadherin on the surface of cells; test: cell-based or functional assay; remark: listed apart in the source
[7] = target: T2, Recombinant human P-cadherin Fc (R&D …); test: ELISA; KD on E-cadherin over KD on P-cadherin

IC50 [1]: 2.49 nM
B1: scFv variant of 129-1c4 with VH CDR3 SEQ ID NO: 37 and VL CDR3 SEQ ID NO: 40 (scFv, V domains shown)
VH: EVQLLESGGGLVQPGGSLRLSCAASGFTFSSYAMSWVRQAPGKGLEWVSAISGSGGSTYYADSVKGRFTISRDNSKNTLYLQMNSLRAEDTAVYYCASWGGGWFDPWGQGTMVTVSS
VL: QSALTQPASVSGSPGQSITISCTGTSNDVGAYNYVSWYQQHPGKAPKLILSEVNKRPSGVSNRFSGSKSGNTASLSISGLQAEDEADYYCSSFTSGLPWVLFGGGTKLTVL
notes: His-tagged purified scFv; also called 37 / 40

A431 Adhesion Assay Mean IC50 (nM) (n = 3) [2]: 0.229 nM
A431 Adhesion Assay Mean IC50 (nM) (n = 2) [3]: 2.1 nM
B2: 194-b09 (antibody, V domains shown)
VH: not shown
VL: B1 VL with L101V

A431 Adhesion Assay Mean IC50 (nM) (n = 3) [2]: 0.149 nM
A431 Adhesion Assay Mean IC50 (nM) (n = 2) [3]: 0.39 nM
B3: 196-g03 (antibody, V domains shown)
VH: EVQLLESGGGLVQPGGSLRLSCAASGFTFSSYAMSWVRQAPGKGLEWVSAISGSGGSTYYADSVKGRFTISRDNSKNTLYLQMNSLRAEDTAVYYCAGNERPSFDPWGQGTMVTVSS
VL: B1 VL with S91T, F93Y, S95M, L97S, P98T, W99F, V100M

A431 Adhesion Assay Mean IC50 (nM) (n = 3) [2]: 0.158 nM
A431 Adhesion Assay Mean IC50 (nM) (n = 2) [3]: 0.73 nM
B4: 194-g09 (antibody, V domains shown)
VH: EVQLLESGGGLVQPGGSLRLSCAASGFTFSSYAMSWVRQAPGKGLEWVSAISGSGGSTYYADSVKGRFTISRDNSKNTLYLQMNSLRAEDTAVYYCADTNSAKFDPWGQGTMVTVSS
VL: B1 VL with Q40R, D87E, F93Y, S95M, L97S, P98T, W99F, V100M

A431 Adhesion Assay Mean IC50 (nM) (n = 3) [2]: 0.114 nM
A431 Adhesion Assay Mean IC50 (nM) (n = 2) [3]: 0.97 nM
B5: 195-e11 (antibody, V domains shown)
VH: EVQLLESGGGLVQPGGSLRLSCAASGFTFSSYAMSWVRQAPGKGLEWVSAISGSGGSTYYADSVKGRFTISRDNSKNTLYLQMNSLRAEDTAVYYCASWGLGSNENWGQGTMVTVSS
VL: B1 VL with L97I, P98V, W99F, V100N

A431 Adhesion Assay Mean IC50 (nM) (n = 3) [2]: 0.168 nM
A431 Adhesion Assay Mean IC50 (nM) (n = 2) [3]: 0.63 nM
B6: 200-h06 (antibody, V domains shown)
VH: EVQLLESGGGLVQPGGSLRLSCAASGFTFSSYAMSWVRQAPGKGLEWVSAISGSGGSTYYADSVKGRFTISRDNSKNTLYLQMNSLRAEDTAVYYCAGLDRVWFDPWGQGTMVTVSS
VL: B1 VL with S91T, F93Y, T94R, S95M, G96D, L97S, P98T, W99F, V100M

IC50 [1]: 1.78 nM
B7: scFv variant of 129-1c4 with VH CDR3 SEQ ID NO: 37 and VL CDR3 SEQ ID NO: 261 (scFv, V domains shown)
VH: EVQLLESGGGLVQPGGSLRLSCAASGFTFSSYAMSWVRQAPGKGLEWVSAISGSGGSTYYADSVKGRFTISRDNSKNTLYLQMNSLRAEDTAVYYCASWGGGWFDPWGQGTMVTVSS
VL: B1 VL with G96Q, L97I, V100A
notes: His-tagged purified scFv; also called 37 / 261

IC50 [1]: 6.67 nM
B8: scFv variant of 129-1c4 with VH CDR3 SEQ ID NO: 37 and VL CDR3 SEQ ID NO: 288 (scFv, V domains shown)
VH: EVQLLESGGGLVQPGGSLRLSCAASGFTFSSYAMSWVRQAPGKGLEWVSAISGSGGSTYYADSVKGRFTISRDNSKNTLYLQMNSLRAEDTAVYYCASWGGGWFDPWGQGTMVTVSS
VL: B1 VL with G96A, L97I, V100S
notes: His-tagged purified scFv; also called 37 / 288

IC50 [1]: 0.8 nM
B9: scFv variant of 129-1c4 with VH CDR3 SEQ ID NO: 37 and VL CDR3 SEQ ID NO: 295 (scFv, V domains shown)
VH: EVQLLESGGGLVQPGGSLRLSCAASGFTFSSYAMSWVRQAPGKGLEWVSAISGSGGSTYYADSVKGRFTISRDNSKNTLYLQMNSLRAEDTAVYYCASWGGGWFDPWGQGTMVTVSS
VL: B1 VL with L97K, P98T, W99F
notes: His-tagged purified scFv; also called 37 / 295

IC50 [1]: 2.19 nM
B10: scFv variant of 129-1c4 with VH CDR3 SEQ ID NO: 37 and VL CDR3 SEQ ID NO: 305 (scFv, V domains shown)
VH: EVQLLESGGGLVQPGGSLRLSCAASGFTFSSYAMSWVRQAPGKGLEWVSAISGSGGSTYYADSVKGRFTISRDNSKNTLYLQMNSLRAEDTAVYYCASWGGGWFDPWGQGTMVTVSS
VL: B1 VL with L97Q, P98Q
notes: His-tagged purified scFv; also called 37 / 305

IC50 [1]: 5.11 nM
B11: scFv variant of 129-1c4 with VH CDR3 SEQ ID NO: 165 and VL CDR3 SEQ ID NO: 47 (scFv, V domains shown)
VH: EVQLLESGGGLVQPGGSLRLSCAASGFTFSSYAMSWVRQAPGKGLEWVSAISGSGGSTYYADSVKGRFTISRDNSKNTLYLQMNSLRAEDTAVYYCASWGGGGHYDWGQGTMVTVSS
VL: B1 VL with L97S, P98T, W99F, V100M
notes: His-tagged purified scFv; also called 165 / 47

IC50 [1]: 2.49 nM
B12: scFv variant of 129-1c4 with VH CDR3 SEQ ID NO: 37 and VL CDR3 SEQ ID NO: 297 (scFv, V domains shown)
VH: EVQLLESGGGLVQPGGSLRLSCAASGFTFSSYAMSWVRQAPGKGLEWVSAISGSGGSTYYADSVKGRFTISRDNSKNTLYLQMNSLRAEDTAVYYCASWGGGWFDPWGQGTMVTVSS
VL: B1 VL with G96S, L97A, P98H, W99F
notes: His-tagged purified scFv; also called 37 / 297

IC50 [1]: 1.47 nM
B13: scFv variant of 129-1c4 with VH CDR3 SEQ ID NO: 37 and VL CDR3 SEQ ID NO: 303 (scFv, V domains shown)
VH: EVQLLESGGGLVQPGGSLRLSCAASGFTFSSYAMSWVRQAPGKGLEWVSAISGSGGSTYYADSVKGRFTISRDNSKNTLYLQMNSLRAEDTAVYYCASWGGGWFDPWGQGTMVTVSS
VL: B1 VL with L97R, P98A, W99F, V100N
notes: His-tagged purified scFv; also called 37 / 303

IC50 [1]: 10.5 nM
B14: scFv variant of 129-1c4 with VH CDR3 SEQ ID NO: 37 and VL CDR3 SEQ ID NO: 287 (scFv, V domains shown)
VH: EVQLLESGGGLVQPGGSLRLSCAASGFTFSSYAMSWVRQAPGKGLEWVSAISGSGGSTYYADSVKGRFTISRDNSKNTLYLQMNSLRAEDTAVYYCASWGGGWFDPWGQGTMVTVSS
VL: B1 VL with L97I, P98K, W99F, V100T
notes: His-tagged purified scFv; also called 37 / 287

IC50 [1]: 5.67 nM
B15: scFv variant of 129-1c4 with VH CDR3 SEQ ID NO: 37 and VL CDR3 SEQ ID NO: 43 (scFv, V domains shown)
VH: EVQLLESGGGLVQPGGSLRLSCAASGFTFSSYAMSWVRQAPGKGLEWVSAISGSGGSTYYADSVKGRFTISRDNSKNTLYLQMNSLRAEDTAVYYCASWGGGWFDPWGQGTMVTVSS
VL: B1 VL with S91T, F93Y, S95M, L97S, P98T, W99F, V100M
notes: His-tagged purified scFv; also called 37 / 43

IC50 [1]: 1.1 nM
B16: scFv variant of 129-1c4 with VH CDR3 SEQ ID NO: 37 and VL CDR3 SEQ ID NO: 304 (scFv, V domains shown)
VH: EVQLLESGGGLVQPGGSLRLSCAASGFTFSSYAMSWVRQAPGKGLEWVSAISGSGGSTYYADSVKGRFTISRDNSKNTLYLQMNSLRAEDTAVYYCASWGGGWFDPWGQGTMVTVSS
VL: B1 VL with L97P, P98V, W99F, V100N
notes: His-tagged purified scFv; also called 37 / 304

A431 Adhesion Assay Mean IC50 (nM) (n = 3) [2]: 0.148 nM
SW480 Aggregation Assay Mean IC50 [4]: 3.2 nM
Kd [5]: 0.102 nM
SW480 Spheroid Disruption Assay, Fold Increased Disruption vs Control at 5 nM [6]: 10 fold
KD(E)/KD(P) [7]: 326
B17: 196-h02 (antibody, V domains shown)
VH: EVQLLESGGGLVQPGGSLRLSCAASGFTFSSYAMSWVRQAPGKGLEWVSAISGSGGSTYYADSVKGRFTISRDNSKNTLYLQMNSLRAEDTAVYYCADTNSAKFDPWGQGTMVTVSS
VL: B1 VL with S91T, F93Y, S95M, L97S, P98T, W99F, V100M
notes: Tested as IgG converted from scFv; also called 196-h02 IgG

IC50 [1]: 8.73 nM
B18: scFv variant of 129-1c4 with VH CDR3 SEQ ID NO: 37 and VL CDR3 SEQ ID NO: 274 (scFv, V domains shown)
VH: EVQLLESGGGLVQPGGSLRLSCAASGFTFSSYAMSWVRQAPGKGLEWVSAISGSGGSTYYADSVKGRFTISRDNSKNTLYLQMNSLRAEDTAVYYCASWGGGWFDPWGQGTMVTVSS
VL: B1 VL with S91G, S92A, F93Y, T94S, S95A, L97S, P98T, W99F, V100M
notes: His-tagged purified scFv; also called 37 / 274

IC50 [1]: 2.2 nM
B19: scFv variant of 129-1c4 with VH CDR3 SEQ ID NO: 37 and VL CDR3 SEQ ID NO: 277 (scFv, V domains shown)
VH: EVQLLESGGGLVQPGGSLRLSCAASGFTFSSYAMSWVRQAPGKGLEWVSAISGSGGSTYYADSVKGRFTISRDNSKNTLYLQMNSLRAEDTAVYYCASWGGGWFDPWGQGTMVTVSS
VL: B1 VL with L97D, P98H
notes: His-tagged purified scFv; also called 37 / 277

IC50 [1]: 1.29 nM
B20: scFv variant of 129-1c4 with VH CDR3 SEQ ID NO: 195 and VL CDR3 SEQ ID NO: 47 (scFv, V domains shown)
VH: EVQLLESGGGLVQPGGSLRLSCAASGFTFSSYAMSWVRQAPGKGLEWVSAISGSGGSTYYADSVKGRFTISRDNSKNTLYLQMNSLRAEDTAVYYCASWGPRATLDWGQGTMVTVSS
VL: B1 VL with L97S, P98T, W99F, V100M
notes: His-tagged purified scFv; also called 195 / 47

IC50 [1]: 1.97 nM
B21: scFv variant of 129-1c4 with VH CDR3 SEQ ID NO: 37 and VL CDR3 SEQ ID NO: 299 (scFv, V domains shown)
VH: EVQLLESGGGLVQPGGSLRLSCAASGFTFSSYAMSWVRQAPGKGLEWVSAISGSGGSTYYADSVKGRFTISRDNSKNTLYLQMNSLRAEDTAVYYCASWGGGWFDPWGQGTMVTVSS
VL: B1 VL with G96D, L97R, P98A, W99F, V100N
notes: His-tagged purified scFv; also called 37 / 299

From patent publication US20060240001A1 (AGOURON PHARMACEUTICALS, published 2006)
